Data on 78 variants can be found in the RNAGym collection of RNA variant scans (doi:10.7554/elife.80360).

B1: CPEB3 Ribozyme (parent)
chain: GGGGGCCACAGCAGAAGCGUUCACGUCGCGGCCCCUGUCAGAUUCUGGUGAAUCUGCGAAUUCUGCUGU

The variants in the data set derive from B1. The experiment in a line: self-cleavage, relative activity (ratio to wild type); higher = more cleavage; co-transcriptional.
Regarding GGGUGCCACAGCAGUAGCGUUCACGUCGCGGCCCCUGUCAGAUUCUGGUGAAUCUGCGAAUUCUGCUGU, the self-cleavage was 0.272.
For GGGCGCCACAGCAGAAGCGCUCACGUCGCGGCCCCUGUCAGAUUCUGGUGAAUCUGCGAAUUCUGCUGU the value was 0.0911; for GGGCGCCACAGCAGAAGCGGUCACGUCGCGGCCCCUGUCAGAUUCUGGUGAAUCUGCGAAUUCUGCUGU, 0.072; for GGGCGCCACAGCAGAAGCGAUCACGUCGCGGCCCCUGUCAGAUUCUGGUGAAUCUGCGAAUUCUGCUGU, 0.0691.
As for GGGUGCCACAGCAGAUGCGUUCACGUCGCGGCCCCUGUCAGAUUCUGGUGAAUCUGCGAAUUCUGCUGU, the self-cleavage came out at 0.235.
Next, GGGCGCCACAGCAGAAGCGUUCACGACGCGGCCCCUGUCAGAUUCUGGUGAAUCUGCGAAUUCUGCUGU: 0.125; GGGCGCCACAGCAGAAGCGUUCACGGCGCGGCCCCUGUCAGAUUCUGGUGAAUCUGCGAAUUCUGCUGU: 0.217; GGGUGCCACAGCAGAAGCGUUCACGUCGCGGCCCCUGUCAGAUUCUGGUGCAUCUGCGAAUUCUGCUGU: 0.524.
With GGGUGCCACAGCAGAAGCGUUCACGUCGCGGCCCCUGUCAGAUUCUGGUGUAUCUGCGAAUUCUGCUGU, the self-cleavage worked out at 0.772.
Consider GGGUGCCACAGCAGAAGCGUUCACGUCGCGGCCCCUGUCAGAUUCUGGUGGAUCUGCGAAUUCUGCUGU, for which the self-cleavage is 0.692.
Next, GGGUGCCACUGCAGAAGCGUUCACGUCGCGGCCCCUGUCAGAUUCUGGUGAAUCUGCGAAUUCUGCUGU: 0.983; GGGCGCCACAGCAGAAGCGUUCACGUCGCGGCCCCUGUCAGAUUCUGGUGAAUCUGCGAAUGCUGCUGU: 0.311; GGGCGCCACAGCAGAAGCGUUCACGUCGCGGCCCCUGUCAGAUUCUGGUGAAUCUGCGAAUCCUGCUGU: 0.213.
Next, GGGUGCCACAGCAGAAGCGUUCACGUCGCGGCCCCUGUCAGAUUCUGGUGAGUCUGCGAAUUCUGCUGU: 0.722.
With GGGUGCCACAGCAGAAGCGUUCACGUCGCGGCCCCUGUCAGAUUCUGGUGACUCUGCGAAUUCUGCUGU, the self-cleavage is 0.519.
For GGGUGCCACAGCAGAAGCGUUCACGUCGCGGCCCCUGUCAGAUUCUGGUGAUUCUGCGAAUUCUGCUGU, the self-cleavage was 0.677.
Turning to GGGCGCCACAGCAGAAGCGUUCACGUCGCGGCCCCUGUCAGAUUCUGGUGAAUCUGCUAAUUCUGCUGU, the self-cleavage was 0.71.
Next, GGGCGCCACAGCAGAAGCGUUCACGUCGCGGCCCCUGUCAGAUUCUGGUGAAUCUGCCAAUUCUGCUGU: 0.226; GGGCGCCACAGCAGAAGCGUUCACGUCGCGGCCCCUGUCAGAUUCUGGUGAAUCUGCAAAUUCUGCUGU: 0.278; GGGCGCCACAGCAGAAGCGUUCACGUCGCGGCCCCUAUCAGAUUCUGGUGAAUCUGCGAAUUCUGCUGU: 0.124.
For GGGCGCCACAGCAGAAGCGUUCACGUCGCGGCCCCUUUCAGAUUCUGGUGAAUCUGCGAAUUCUGCUGU the value was 0.0878.
Consider GGGCGCCACAGCAGAAGCGUUCACGUCGCGGCCCCUCUCAGAUUCUGGUGAAUCUGCGAAUUCUGCUGU, for which the self-cleavage turned out to be 0.068.
In the case of GGGCGCCACAGCAGAAGCGUUCACGUCGCGGCCCCUGUCAGAUUCUGGUGAAACUGCGAAUUCUGCUGU, the self-cleavage is 0.316.
Take GGGCGCCACAGCAGAAGCGUUCACGUCGCGGCCCCUGUCAGAUUCUGGUGAACCUGCGAAUUCUGCUGU: the self-cleavage was determined as 0.239.
GGGCGCCACAGCAGAAGCGUUCACGUCGCGGCCCCUGUCAGAUUCUAGUGAAUCUGCGAAUUCUGCUGU: the self-cleavage is 0.674.
For GGGCGCCACAGCAGAAGCGUUCACGUCGCGGCCCCUGUCAGAUUCUUGUGAAUCUGCGAAUUCUGCUGU the value was 0.638.
For GGGCGCCACAGCAGAAGCGUUCACGUCGCGCCCCCUGUCAGAUUCUGGUGAAUCUGCGAAUUCUGCUGU the value was 0.105.
On to GGGCGCCACAGCAGAAGCGUUCACGUCGCGGCCCCUGUCACAUUCUGGUGAAUCUGCGAAUUCUGCUGU, for which the self-cleavage worked out at 0.146.
For the variant GGGCGCCACAGCAGAAGCGUUCACGUCGCGGCCCCUGUCAAAUUCUGGUGAAUCUGCGAAUUCUGCUGU, the self-cleavage is 0.0714.
Consider GGGCGCCACAGCAGAAGCGUUCACUUCGCGGCCCCUGUCAGAUUCUGGUGAAUCUGCGAAUUCUGCUGU, for which the self-cleavage was found to be 0.0499.
In the case of GGGUGCCUCAGCAGAAGCGUUCACGUCGCGGCCCCUGUCAGAUUCUGGUGAAUCUGCGAAUUCUGCUGU, the self-cleavage came to 0.737.
As to GGGCGCCACAGCAGAAGCGUUCACGUCGCGGCCCCUGUCAGAUUCCGGUGAAUCUGCGAAUUCUGCUGU, the self-cleavage came to 0.619.
Next, GGGCGCCACAGCAGAAGCGUUCACGUCGCGGCCCCUGUCAGAAUCUGGUGAAUCUGCGAAUUCUGCUGU: 0.251; GGGCGCCACAGCAGAAGCGUUCACGUCGCGGCCCCUGUCAGAUUCUGGUGAAUCUCCGAAUUCUGCUGU: 0.246; GGGCGCCACAGCAGAAGCGUUCACGUCGCGGCCCCUGUCAGAUUCUGGUGAAUCUACGAAUUCUGCUGU: 0.289.
Take GGGUGCCACAGCAGAAGCGUUCACGUCGCGGCCCCUGUCAGAUUCUGGUGAAUCUGCGACUUCUGCUGU: the self-cleavage was 0.171.
Next, GGGCGCCACAGCAGAAGCGUUCACGUCUCGGCCCCUGUCAGAUUCUGGUGAAUCUGCGAAUUCUGCUGU: 0.109; GGGCGCCACAGCAGAAGCGUUCACGUCACGGCCCCUGUCAGAUUCUGGUGAAUCUGCGAAUUCUGCUGU: 0.0907; GGGCGCCACAGCAGAAGCGUUCACGUCCCGGCCCCUGUCAGAUUCUGGUGAAUCUGCGAAUUCUGCUGU: 0.0443.
For GGGUGCCACAGCAGAAGCGUUCGCGUCGCGGCCCCUGUCAGAUUCUGGUGAAUCUGCGAAUUCUGCUGU the value was 0.502.
Next, GGGCGCCACAGCAGAAGCGUUCACGUCGCGGCCCCUGUCAGAUUCUGGUGAAUCUGCGAAUUCUCCUGU: 0.242.
For GGGCGCCACAGCAGAAGCGUUCACGUCGCGGCCCCUGUCAGAUUCUGGUGAAUCUGCGAAUUCUUCUGU, the self-cleavage was 0.294.
Consider GGGCGCCACAGCAGAAGCGUUCACGUCGCGGCCCCUGUCAGAUUCUGGUGAAUCUGCGAAUUCUACUGU, for which the self-cleavage was 0.412.
Regarding GGGUGCCACAGCAGAAGCGUUCACGUCGCGGCCCCUGUCAGAUUCUGGUGAAUCUGCGCAUUCUGCUGU, the self-cleavage is 0.146.
In the case of GGGUGCCACAGCAGAAGCGUUCACGUCGCGGCCCCUGUCAGAUUCUGGUGAAUCUGCGUAUUCUGCUGU, the self-cleavage is 0.193.
Take GGGCGCCACAGCAGAAGCGUUCACGUCGCGGCCCCUGUCAGAUUCUGGUGAAUCUGCGAACUCUGCUGU: the self-cleavage was found to be 0.169.
Regarding GGGCGCCACAGCAGAAGCGUUCACGUCGCGGCCCCUGUCAGAUUCUGGUGAAUCUGCGAAGUCUGCUGU, the self-cleavage amounted to 0.178.
Next, GGGUGCCACAGCUGAAGCGUUCACGUCGCGGCCCCUGUCAGAUUCUGGUGAAUCUGCGAAUUCUGCUGU: 0.383; GGGUGCCACAGCCGAAGCGUUCACGUCGCGGCCCCUGUCAGAUUCUGGUGAAUCUGCGAAUUCUGCUGU: 0.336.
As for GGGCGCCACAGCAGAAGCGUUCACGUCGCGGCCCCUGUCAGAUUCUGGUGAAUCCGCGAAUUCUGCUGU, the self-cleavage came out at 0.237.
For GGGCGCCACAGCAGAAGCGUUCACGUCGCGGCCCCUGUCAGAUUCUGGUGAAUCAGCGAAUUCUGCUGU the value was 0.261.
Next, GGGCGCCACAGCAGAAGCGUUCACGUCGCUGCCCCUGUCAGAUUCUGGUGAAUCUGCGAAUUCUGCUGU: 0.0789; GGGCGCCACAGCAGAAGCGUUCACGUCGCAGCCCCUGUCAGAUUCUGGUGAAUCUGCGAAUUCUGCUGU: 0.0414.
Regarding GGGCGCCACAGCAGAAGCGUCCACGUCGCGGCCCCUGUCAGAUUCUGGUGAAUCUGCGAAUUCUGCUGU, the self-cleavage stood at 0.215.
For GGGCGCCACAGCAGAAGCGUACACGUCGCGGCCCCUGUCAGAUUCUGGUGAAUCUGCGAAUUCUGCUGU the value was 0.427; for GGGCGCCACAGCAGAAGCGUGCACGUCGCGGCCCCUGUCAGAUUCUGGUGAAUCUGCGAAUUCUGCUGU, 0.0719.
For GGGCGCCACAGCAGAAGCGUUCACGUCGCGGCCCCUGUCAGAUUCUGGUGAAUCUGCGAAUUCUGCUUU the value was 0.98; for GGGUGCCACAGCAGAAGCGUUCACGUCGCGGCCCCUGUCUGAUUCUGGUGAAUCUGCGAAUUCUGCUGU, 0.313.
Next, GGGUGCCACAGCAGAAGCGUUCACGUCGCGGCCCCUGUCGGAUUCUGGUGAAUCUGCGAAUUCUGCUGU: 0.542.
For the variant GGGCGCCACAGCAGAAGCGUUCACGUCGCGGCCCCUGACAGAUUCUGGUGAAUCUGCGAAUUCUGCUGU, the self-cleavage was 0.639.
Turning to GGGCGCCACAGCAGAAGCGUUCACGUCGCGGCCCCUGGCAGAUUCUGGUGAAUCUGCGAAUUCUGCUGU, the self-cleavage is 0.152.
As to GGGCGCCACAGCAGAAGCGUUCACGUCGCGGCCCCUGUCAGAUUCUGGUGAAUCUGCGAAUUCUGCUGG, the self-cleavage is 0.914.
In the case of GGGCGCCACAGCAGAAGCGUUCACGUCGCGGCCCCUGUCAGAUUCUGGUGAAUCUGCGAAUUCUGCUGA, the self-cleavage amounted to 0.877.
Consider GGGCGCCACAGCAGAAGCGUUCACGUCGCGGCCCCUGUCAGAUGCUGGUGAAUCUGCGAAUUCUGCUGU, for which the self-cleavage turned out to be 0.265.
For GGGCGCCACAGCAGAAGCGUUCACGUCGCGGCCCCUGUCAGAUUCUGGUGAAUCUGCGAAUUCUGCCGU the value was 0.824.
GGGCGCCACAGCAGAAGCGUUCACGUCGCGGCCCCUGUCAGAUUCUGGUGAAUCUGCGAAUUCUGCAGU: the self-cleavage amounted to 0.902.
Next, GGGCGCCACAGCAGAAGCGUUCACGUCGCGGCCCCUGUCAGAUUCUGGUGAAUCUGCGAAUUCUGCGGU: 0.848; GGGCGCCACAGCAGAAGCGUUCACGUCGCGGCCCCUGUCAGAUUCUGCUGAAUCUGCGAAUUCUGCUGU: 0.675; GGGCGCCACAGCAGAAGCGUUCACGUCGCGGCCCCUGUCAGAUUCUGUUGAAUCUGCGAAUUCUGCUGU: 0.755.
On to GGGUGCCACAGCAGAAGCGUUCACGUCGCGGCCCCUGUCAGUUUCUGGUGAAUCUGCGAAUUCUGCUGU, for which the self-cleavage stood at 0.526.
GGGUGCCACAGCAGAAGCGUUCACGUCGCGGCCCCUGUCAGGUUCUGGUGAAUCUGCGAAUUCUGCUGU: the self-cleavage stood at 0.655.
GGGCGCCACAGCAGAAGCGUUCACGUCGCGGCCCCUGUCAGAUUCUGGUGAAUCUGCGAAUUCCGCUGU: the self-cleavage was 0.426.
For GGGCGCCACAGCAGAAGCGUUCACGUCGCGGCCCCUGUCAGAUUCUGGUGAAUCUGCGAAUUCAGCUGU the value was 0.457; for GGGCGCCACAGCAGAAGCGUUCACGUCGCGGCCCCCGUCAGAUUCUGGUGAAUCUGCGAAUUCUGCUGU, 0.589.
For GGGCGCCACAGCAGAAGCGUUCACGUCGCGGCCCCAGUCAGAUUCUGGUGAAUCUGCGAAUUCUGCUGU the value was 0.0958; for GGGCGCCACAGCAGAAGCGUUCACGUCGCGGCCCCGGUCAGAUUCUGGUGAAUCUGCGAAUUCUGCUGU, 0.481.
With GGGCGCCACAGCAGAAGCGUUCACGUCGCGGCCCCUGUCAGAUUCUGGUCAAUCUGCGAAUUCUGCUGU, the self-cleavage was 0.621.
For GGGCGCCACAGCAGAAGCGUUCACGUCGCGGCCCCUGUCAGAUUCUGGUAAAUCUGCGAAUUCUGCUGU the value was 0.654.
